Starred links: 1 amine or outer side, 2 acyl side, 3 side chain; linkers in the order of their positions; H or OH if unused. Positions of bridges follow the written chain, without caps; N, C: chain ends. Non-standard residues stand in square brackets, D forms with d. No end group written: not given here. Trimesoyl = O=C(c1cc(C(=O)[*:2])cc(C(=O)[*:3])c1)[*:1]; Phe(4-Cl) = N[C@@H](Cc1ccc(Cl)cc1)C(=O)O; Phe(4-F) = N[C@@H](Cc1ccc(F)cc1)C(=O)O; 2Nal = N[C@@H](Cc1ccc2ccccc2c1)C(=O)O; d2Nal = N[C@H](Cc1ccc2ccccc2c1)C(=O)O; βAsp = O=C(O)[C@H](CC(=O)[*:2])N[*:1]; Nle = CCCC[C@H](N)C(=O)O; Orn = NCCC[C@H](N)C(=O)O; Dap = NC[C@H](N)C(=O)O; TMA = not defined here
B1: FAM-labeled macrocyclic peptide B7-133-5 (peptide)
chain: YDHDHLXFXRRRRX
modifications: not fully specified; same peptide as Dm35 (Table S3); bicyclic via TMA to Dap7 and Dap14; D2=isoAsp, D-Leu6, X7/X14=Dap, F8=4-chloro-Phe, X9=D-2-Nal, D-Arg10, D-Arg12; linker Lys(FAM) left out
B2: biotinylated full-length Etf-1 protein (natural protein, E. chaffeensis, UniProt Q2GG12 1-380, looked up)
chain: MLTFLKKGANVVIKAAITPTTSKLPHQESVGKYLGGMLKSIIPGQKDPAEKHFDLRMHNRTHKLGVELPARTRIDGHEQEVALKVPSYKLPYQTLQKFAAWQEQDKEGEVEETKKDTLTSLINPVSATQEFIRSNTADKYFEKLKALDQQLKEIGGKVTVNSTPGRYKQGLTIELDVSNKSRIAIEKDVRLVLEGLGINDEELVKTFTKRLYKSSTDKKMSSADIHTEKTSSNTDSKDNSNNQDHDIVSPAKRHGSDTVSAVQRQGDDILSSSQEQSSKTGSPTNSTGISNSDFSLTNPQNMPYSRTPMQSSQMLQQLQNQILMQQKPERIFSQAMPTVMQQEIDEIAEDLCQGLNEGPTQGNSNNIGKHFSNPGKVHAR
modifications: biotin (two equivalents of NHS-PEG4-D-Biotin, pH 8.0)
notes: source: E. coli BL21(DE3), purified (HisPur Cobalt resin, size exclusion chromatography), then biotinylated
B3: FAM-labeled macrocyclic peptide B13 (peptide)
chain: EHFEHAXFXRRRX
modifications: not fully specified; carboxyfluorescein (FAM) at the C-terminus through a β-Ala-β-Ala-Lys linker
B4: FAM-labeled macrocyclic peptide B22 (peptide)
chain: VXNHAXFXRRRRX
modifications: not fully specified; carboxyfluorescein (FAM) at the C-terminus through a β-Ala-β-Ala-Lys linker
B5: FAM-labeled macrocyclic peptide B17 (peptide)
chain: XFGDYXFXRRRRX
modifications: not fully specified; carboxyfluorescein (FAM) at the C-terminus through a β-Ala-β-Ala-Lys linker

Columns and labels:
Details in all cases: both partners purified
[1] = molecular target: Ehrlichia translocated factor-1 (Etf-1), recombinant 6×His-Etf-1 fusion protein (E. chaffeensis, UniProt Q2GG12 1-380); experiment: fluorescence polarisation
[2] = molecular target: T1, Ehrlichia translocated factor-1 (Etf-1) (Ehrlichia chaffeensis, UniProt Q2GG12 1-380); experiment: fluorescence polarisation
[3] = molecular target: T1, Ehrlichia translocated factor-1 (Etf-1); experiment: fluorescence polarisation; remark: listed apart in the source
[4] = molecular target: T2, recombinant full-length BECN1 protein (Beclin 1) (human, UniProt Q14457 1-450); experiment: SPR; OpenSPR; biotinylated rEtf-1 (1 μM) immobilised on a streptavidin sensor chip, BECN1 dilutions as analyte; 20 mM Tris pH 8.0, 100 mM NaCl, 0.05% Tween 20; 30 µL/min
T2 construct: also called ATG6; source: size exclusion chromatography
T2 sequence (Q14457 whole entry): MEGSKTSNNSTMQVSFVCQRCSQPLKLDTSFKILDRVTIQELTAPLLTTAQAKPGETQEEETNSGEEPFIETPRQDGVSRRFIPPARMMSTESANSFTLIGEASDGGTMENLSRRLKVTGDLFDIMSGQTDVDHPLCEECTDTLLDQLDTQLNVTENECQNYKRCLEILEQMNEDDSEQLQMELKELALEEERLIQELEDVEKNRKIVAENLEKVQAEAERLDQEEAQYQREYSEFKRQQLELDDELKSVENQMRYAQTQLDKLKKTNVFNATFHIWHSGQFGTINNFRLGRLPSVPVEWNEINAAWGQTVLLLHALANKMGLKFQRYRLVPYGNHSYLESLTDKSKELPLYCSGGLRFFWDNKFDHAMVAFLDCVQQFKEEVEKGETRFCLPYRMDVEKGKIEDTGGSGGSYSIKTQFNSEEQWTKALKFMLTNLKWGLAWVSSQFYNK

| Binder | Kd [1] | Kd [3] | also measured |
| --- | --- | --- | --- |
| B1 | > 10 µM | – | – |
| QHS[dV][Dap][dF][2Nal]R[dR]R[Dap] (linker 5-11 via TMA; not fully specified (C-terminus); reading uncertain) [macrocyclic peptide C6, FAM-labelled] | – | – | Kd [2]: > 25 µM |
| Y[Nle][dE]QG[dL][Dap][Phe(4-Cl)][d2Nal][dR]R[dR]R[Dap]-{Lys(FAM)} (linker N-7-14 via Trimesoyl; not fully specified (N-terminus)) [macrocyclic peptide B7-133-4, FAM-labelled] | – | 6.5 ± 0.1 µM | – |
| YH[d2Nal]QS[Phe(4-F)][dL][Dap][Phe(4-Cl)][d2Nal][dR]R[dR]R[Dap]-{Lys(FAM)} (linker N-8-15 via Trimesoyl; not fully specified (N-terminus)) [macrocyclic peptide B7-131-2, FAM-labelled] | – | 8.8 ± 0.9 µM | – |
| B2 | – | – | Kd [4]: 0.06 ± 0.001 µM |
| IDA[Nle]H[Dap]F[2Nal]RRR[Dap] (linker 6-12 via TMA; not fully specified (C-terminus); reading uncertain) [macrocyclic peptide C9, FAM-labelled] | – | – | Kd [2]: > 25 µM |
| B3 | > 25 µM | – | – |
| B4 | > 25 µM | – | – |
| Y[dA]D[dY][dA][dL][Dap][Phe(4-Cl)][d2Nal][dR]R[dR]R[Dap]-{Lys(FAM)} (linker N-7-14 via Trimesoyl; not fully specified (N-terminus)) [macrocyclic peptide B7-133-2, FAM-labelled] | – | 8.2 ± 1.2 µM | – |
| IHA[Orn][dK][Dap]F[2Nal]RRR[Dap] (linker 6-12 via TMA; not fully specified (C-terminus); reading uncertain) [macrocyclic peptide C19, FAM-labelled] | – | – | Kd [2]: > 25 µM |
| Y[βAsp]HDH[dL][Dap][Phe(4-Cl)][d2Nal][dR]R[dR]R[Dap]-{Lys(FAM)} (linker N-7-14 via Trimesoyl; not fully specified (N-terminus)) [macrocyclic peptide B7-133-5, FAM-labelled] | – | > 10 µM | – |
| B5 | > 25 µM | – | – |
